Substitutions are numbered along the chain they refer to.
Columns and labels:
[1] = molecular target: T1, nectin-2 Ig1 domain-deficient protein (human, UniProt Q92692 32-538); experiment: FCM
T1 construct: transient in CHO-K1; also called delta-Ig1; Nectin-2ΔIg1
T1 sequence: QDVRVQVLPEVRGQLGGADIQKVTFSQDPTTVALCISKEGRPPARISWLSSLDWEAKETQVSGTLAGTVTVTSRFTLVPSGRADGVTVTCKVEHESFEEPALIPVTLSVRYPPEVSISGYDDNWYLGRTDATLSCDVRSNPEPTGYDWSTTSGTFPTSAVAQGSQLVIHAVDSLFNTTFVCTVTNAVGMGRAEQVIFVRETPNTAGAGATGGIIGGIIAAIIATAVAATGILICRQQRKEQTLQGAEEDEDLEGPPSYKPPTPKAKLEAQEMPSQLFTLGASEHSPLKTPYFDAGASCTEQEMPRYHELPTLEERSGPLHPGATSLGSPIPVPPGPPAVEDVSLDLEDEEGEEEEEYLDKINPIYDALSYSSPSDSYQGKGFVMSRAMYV
Experimental: (§1) After 200 μL of FCM buffer was added to each well and washed once by centrifugal operation, 50 μL each of Alexa488-labeled secondary antibody diluted in FCM buffer to 10 μg/mL was added to and mixed therewith, and the mixture was then reacted on ice for an hour. The Alexa488-labeled secondary antibody used was Alexa Fluor488 goat anti-human IgG (H+L) for the human antibodies and Alexa Fluor488 goat anti-rabbit IgG (H+L) (Invitrogen) for the rabbit antibody. The cells in each well were washed twice with FCM buffer and then resuspended in 250 μL of FCM buffer. Using the flow cytometer MPL500 (BECKMAN COULTER), the fluorescence intensity of stained cells was measured to determine the ratio of the median value of fluorescence intensities of the respective antibodies in the primary antibody group to the median value of fluorescence intensities in the negative control group.

[2] = molecular target: T2, nectin-2 Ig2 domain-deficient protein (human, UniProt Q92692 32-538); experiment: FCM
T2 construct: transient in CHO-K1; also called delta-Ig2; Nectin-2ΔIg2
T2 sequence: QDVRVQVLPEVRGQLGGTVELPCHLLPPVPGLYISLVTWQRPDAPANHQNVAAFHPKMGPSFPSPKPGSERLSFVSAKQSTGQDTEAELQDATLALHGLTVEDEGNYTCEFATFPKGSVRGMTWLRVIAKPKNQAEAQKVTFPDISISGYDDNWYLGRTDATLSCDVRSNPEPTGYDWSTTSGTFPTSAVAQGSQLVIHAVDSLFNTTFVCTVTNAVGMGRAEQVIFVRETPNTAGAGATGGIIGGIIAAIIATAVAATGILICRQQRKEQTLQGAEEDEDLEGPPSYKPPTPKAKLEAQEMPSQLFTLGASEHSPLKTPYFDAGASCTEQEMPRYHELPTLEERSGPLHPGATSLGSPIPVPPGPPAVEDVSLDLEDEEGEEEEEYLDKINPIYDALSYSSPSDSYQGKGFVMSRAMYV
Experimental: as §1

human nectin-2δ protein [3] = molecular target: T3, human nectin-2δ protein (human, UniProt Q92692 32-538); experiment: FCM
T3 sequence: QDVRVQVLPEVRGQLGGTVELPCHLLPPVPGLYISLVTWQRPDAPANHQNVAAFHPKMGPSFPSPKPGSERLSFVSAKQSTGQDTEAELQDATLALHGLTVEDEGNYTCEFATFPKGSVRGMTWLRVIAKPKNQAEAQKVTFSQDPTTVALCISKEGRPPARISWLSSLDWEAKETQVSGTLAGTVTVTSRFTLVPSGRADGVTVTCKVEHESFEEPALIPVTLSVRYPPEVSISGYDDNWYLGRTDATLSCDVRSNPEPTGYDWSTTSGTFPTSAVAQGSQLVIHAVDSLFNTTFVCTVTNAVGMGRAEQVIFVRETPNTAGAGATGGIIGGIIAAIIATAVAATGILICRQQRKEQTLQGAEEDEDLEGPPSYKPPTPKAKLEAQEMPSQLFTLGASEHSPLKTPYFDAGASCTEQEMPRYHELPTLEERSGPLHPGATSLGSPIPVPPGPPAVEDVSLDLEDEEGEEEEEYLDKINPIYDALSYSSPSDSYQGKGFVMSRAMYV
Experimental: (§2) Then, after 200 μL of FCM buffer was added to each well and washed once by centrifugal operation, 50 μL each of Alexa488-labeled secondary antibody diluted in FCM buffer to 10 μg/mL was added thereto for suspension, and the mixture was then reacted on ice for an hour. As secondary antibodies, Alexa Fluor488 goat anti-human IgG (H+L) was used for the human antibodies and Alexa Fluor488 goat anti-rabbit IgG (H+L) (Invitrogen) was used for the rabbit antibody, respectively. Next, the cells were washed twice with FCM buffer and then resuspended in 250 μL of FCM buffer.

[4] = molecular target: T4, cynomolgus monkey nectin-2 protein (cynomolgus monkey, UniProt Q92692 32-538 (human entry)); experiment: FCM
T4 construct: transient in CHO-K1; also called maNectin-2
T4 chain: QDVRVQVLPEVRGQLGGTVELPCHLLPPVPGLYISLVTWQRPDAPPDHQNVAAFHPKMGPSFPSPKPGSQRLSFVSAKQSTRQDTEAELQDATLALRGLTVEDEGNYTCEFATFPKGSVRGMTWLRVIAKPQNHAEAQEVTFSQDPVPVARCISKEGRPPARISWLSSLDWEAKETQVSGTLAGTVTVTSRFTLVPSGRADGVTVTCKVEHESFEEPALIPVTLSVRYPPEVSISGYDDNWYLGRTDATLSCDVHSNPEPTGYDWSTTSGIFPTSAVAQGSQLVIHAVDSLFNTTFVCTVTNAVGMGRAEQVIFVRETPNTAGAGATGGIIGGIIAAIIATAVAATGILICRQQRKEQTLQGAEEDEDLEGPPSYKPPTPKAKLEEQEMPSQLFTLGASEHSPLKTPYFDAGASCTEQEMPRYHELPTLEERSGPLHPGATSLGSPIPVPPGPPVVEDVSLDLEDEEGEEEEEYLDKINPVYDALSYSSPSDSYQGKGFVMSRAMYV
Experimental: as §2

[5] = molecular target: T5, human nectin-2δ AN77-78PD (human, UniProt Q92692 32-538); experiment: FCM
T5 construct: transient in CHO-K1; also called Nectin-2 (AN77-78PD)
T5 sequence: T3 sequence with A46P, N47D
Experimental: (§3) Then, after 200 μL of FCM buffer was added to each well and washed once by centrifugal operation, 50 μL of Alexa Fluor488 goat anti-human IgG (H+L) diluted in FCM buffer to 10 μg/mL was added thereto for suspension, and the mixture was then reacted on ice for an hour. Next, the cells were washed twice with FCM buffer and resuspended in 250 μL of FCM buffer. Using flow cytometer MPL500 (BECKMAN COULTER), the fluorescence intensities of stained cells were measured, respectively.

human nectin-2δ G113R = molecular target: T6, human nectin-2δ G113R (human, UniProt Q92692 32-538); experiment: FCM
T6 construct: transient in CHO-K1; also called Nectin-2 (G113R)
T6 sequence: T3 sequence with G82R
Experimental: as §3

human nectin-2δ H128R = molecular target: T7, human nectin-2δ H128R (human, UniProt Q92692 32-538); experiment: FCM
T7 construct: transient in CHO-K1; also called Nectin-2 (H128R)
T7 sequence: T3 sequence with H97R
Experimental: as §3

human nectin-2δ protein [6] = molecular target: T3, human nectin-2δ protein; experiment: Cell ELISA
Experimental: In other words, the CHO cell line (#43-2) stably expressing nectin-2δ and the mock-CHO cell line were incubated in a 96-well tissue culture plate charged with GS-selection DMEM medium supplemented with 10% dialyzed FBS and GS supplement. After the culture supernatant of the plate where each cell line became confluent was removed by aspiration, 200 μL/well of PBS(+) supplemented with 2% FBS was added thereto and incubated on ice in the dark for an hour. After the supernatant of each well was removed by aspiration, 50 μL each/well of the hybridoma culture supernatant was added and reacted on ice in the dark for 2 hours. After this plate was washed once with PBS(+) chilled at 4° C., anti-human IgG (H+L) chain specific (GOAT) peroxidase conjugate (CALBIOCHEM) diluted to 3,000-fold with PBS(+) supplemented with 2% FBS was added by 100 μL each/well and reacted on ice in the dark for 2 hours. […] Absorbance (450 nm) of each well was measured using a plate reader (Multiskan BICHROMATIC; Thermo Electron Co.), and those showing absorbance of 0.5 or more in the nectin-2 expression CHO cell line plate and showing absorbance of less than 0.3 in the mock-CHO cell line plate were judged to be positive wells. […]

B1: Nec1-554-1 (antibody, human IgG1, V domains shown)
VH: EVQLVESGGGLVKPGGSLRLSCAASGFTFSSYNMNWVRQAPGKGLEWVSSISSSSSYIYYADSVKGRFTISRDNAKNSLYLQMNSLRAEDTAVYYCARDYYGSGTYYLFDYWGQGTLVTVSS
VL: EIVLTQSPDFQSVTPKEKVTITCRASQSIGSSLHWYQQKPDQSPKLLIKYASQSFSGVPSRFSGSGSGTDFTLTINSLEAEDAAAYYCHQSRSLPITFGQGTRLEIK
notes: human IgG1/k from hybridoma FERM BP-10681
For B1, the median fluorescence ratio [1] was 3.6, the binding result [2] was “no binding (tested: ratio <2 = no reactivity; 6 µg/mL)” and the median fluorescence ratio (human nectin-2δ protein [3]) was 43. It also gave a median fluorescence ratio [4] of 14.8, a median fluorescence ratio [5] of 44.2 and a median fluorescence ratio (human nectin-2δ G113R) of 38.7. For the same binder, the median fluorescence ratio (human nectin-2δ H128R) was 51.5 and the EC50 (human nectin-2δ protein [6]) was 1.11 nM.

— US20100008928A1 (Takeda / Millennium, published 2010)
